Laboratory results as given in publication PMC8390317 (Experimental Animals, 2021).
Substitutions are numbered along the chain they refer to. Each block holds one binder with its values, some of them ahead of it.

Target: recombinant B7-H4 protein (Phe29 to Ala258) (Homo sapiens, UniProt Q7Z7D3)
Assay: ELISA

Sequence of recombinant B7-H4 protein (Phe29 to Ala258) (Q7Z7D3 29-258): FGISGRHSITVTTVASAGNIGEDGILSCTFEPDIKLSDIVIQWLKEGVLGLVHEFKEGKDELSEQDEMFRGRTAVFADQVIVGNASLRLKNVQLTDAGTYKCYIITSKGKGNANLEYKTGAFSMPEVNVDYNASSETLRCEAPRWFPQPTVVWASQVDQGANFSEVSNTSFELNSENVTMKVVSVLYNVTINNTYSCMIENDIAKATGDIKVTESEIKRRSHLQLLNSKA

EC50: ~22 nM
B1: anti-B7-H4 scFv S2 (scFv, V domains shown)
VH: AVTLDESGGGLQTPGGGLSLVCKASGFTFSSYGMGWMRQVPGKGLEYVAVIDAGSGTWYATAVKGRATISRDNGQSTVRLQLNNLRAEDTATYYCAKSANAGAPDGAWIDAWGHGTEVIVSS
VL: LTQPSSVSANLGGTVEITCSGGSGGYGWFQQKSPGSAPVTLIYNNNKRPSDIPSRFSGSKSGSTATLTITGVRAEDEAVYYCGGWDSIDSGIFGAGTTLTVL

EC50: ~33 nM
B2: anti-B7-H4 scFv S4 (scFv, V domains shown)
VH: B1 VH with G17A
VL: LTQPSSVSANLGETVKITCSGGSYSYGWYQQKSPGSAPVTVIYDNNKRPSDIPSRFSGSKSGSTGTLTITGVQAEDEAIYYCGSRDSNTGYAAFGAGTTLTVL
